The values that follow come from patent US20130084293A1 (LA JOLLA INSTITUTE FOR ALLERGY AND IMMUNOLOGY, published 2013).

This series deals with the molecule itself. The series can be described thus: self-association: reducing and non-reducing SDS-PAGE and size exclusion chromatography of purified mHRF-His6. (In gel filtration, larger molecules generally elute earlier.)

B1: C-terminally hexahistidine-tagged mouse HRF (mHRF-His6) (ligand)
chain: MIIYRDLISHDELFSDIYKIREIADGLCLEVEGKMVSRTEGAIDDSLIGGNASAEGPEGEGTESTVVTGVDIVMNHHLQETSFTKEAYKKYIKDYMKSLKGKLEEQKPERVKPFMTGAAEQIKHILANFNNYQFFIGENMNPDGMVALLDYREDGVTPFMIFFKDGLEMEKCHHHHHH
notes: Expressed in E. coli BL21(DE3) from pET-24a(+)
For B1, the binding result is “binds”.
